Reference: patent US20240270846A1 (published 2024)

target: T1, CD3 epsilon homodimer protein (UniProt P07766 23-126); assay: SPR Biacore T200, antibody over immobilised CD3e homodimer;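 note: CD3 epsilon homodimer amine-coupled on a CM4 chip, run at 25 °C in HBS-EP+, Z = bound amount of each single-residue H chain variant over that of the parent antibody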
T1 construct: also called CD3 (CD3 epsilon)
T1 sequence (P07766 23-126): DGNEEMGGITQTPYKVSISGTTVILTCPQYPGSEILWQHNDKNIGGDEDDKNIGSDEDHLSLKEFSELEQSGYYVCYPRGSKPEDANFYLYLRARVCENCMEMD

Row | Binder | ratio of amounts bound (Z=Y/X vs CE115HA000)
1 | CE115HA000 R19T one-arm antibody (antibody, human IgG1, kappa, L234A L235A, N297A, name in Kabat numbering, one-arm antibody) heavy: QVQLVESGGGVVQPGRSLTLSCAASGFTFSNAWMHWVRQAPGKGLEWVAQIKAKSNNYATYYAESVKGRFTISRDDSKNSLYLQMNSLKTEDTAVYYCRYVHYGAYYGVDAWGQGTTVTVSSASTKGPSVFPLAPSSKSTSGGTAALGCLVKDYFPEPVTVSWNSGALTSGVHTFPAVLQSSGLYSLSSVVTVPSSSLGTQTYICNVNHKPSNTKVDKKVEPKSCDKTHTCPPCPAPEAAGGPSVFLFPPKPKDTLMISRTPEVTCVVVDVSHEDPEVKFNWYVDGVEVHNAKTKPREEQYASTYRVVSVLTVLHQDWLNGKEYKCKVSNKALPAPIEKTISKAKGQPREPQVYTLPPSRCELTKNQVSLSCAVKGFYPSDIAVEWESNGQPENNYKTTPPVLDSDGSFFLVSKLTVDKSRWQQGNVFSCSVMHEALHNHYTQKSLSLSPDYKDDDDK EPKSSDKTHTCPPCPAPELLGGPSVFLFPPKPKDTLMISRTPEVTCVVVDVSHEDPEVKFNWYVDGVEVHNAKTKPREEQYNSTYRVVSVLTVLHQDWLNGKEYKCKVSNKALPAPIEKTISKAKGQPREPQVCTLPPSRDELTKNQVSLWCLVKGFYPSDIAVEWESNGQPENNYKTTPPVLDSDGSFFLYSKLTVDKSRWQQGNVFSCSVMHEALHNRYTQKSLSLSP light: DIVMTQSPLSLPVTPGEPASISCRSSQSLVHSNRNTYLHWYQQKPGQAPRLLIYKVSNRFSGVPDRFSGSGSGTDFTLKISRVEAEDVGVYYCGQGTQVPYTFGQGTKLEIKRTVAAPSVFIFPPSDEQLKSGTASVVCLLNNFYPREAKVQWKVDNALQSGNSQESVTEQDSKDSTYSLSSTLTLSKADYEKHKVYACEVTHQGLSSPVTKSFNRGEC | 0.8
2 | CE115HA000 S52cD one-arm antibody (antibody, human IgG1, kappa, L234A L235A, N297A, name in Kabat numbering, one-arm antibody) heavy: QVQLVESGGGVVQPGRSLRLSCAASGFTFSNAWMHWVRQAPGKGLEWVAQIKAKDNNYATYYAESVKGRFTISRDDSKNSLYLQMNSLKTEDTAVYYCRYVHYGAYYGVDAWGQGTTVTVSSASTKGPSVFPLAPSSKSTSGGTAALGCLVKDYFPEPVTVSWNSGALTSGVHTFPAVLQSSGLYSLSSVVTVPSSSLGTQTYICNVNHKPSNTKVDKKVEPKSCDKTHTCPPCPAPEAAGGPSVFLFPPKPKDTLMISRTPEVTCVVVDVSHEDPEVKFNWYVDGVEVHNAKTKPREEQYASTYRVVSVLTVLHQDWLNGKEYKCKVSNKALPAPIEKTISKAKGQPREPQVYTLPPSRCELTKNQVSLSCAVKGFYPSDIAVEWESNGQPENNYKTTPPVLDSDGSFFLVSKLTVDKSRWQQGNVFSCSVMHEALHNHYTQKSLSLSPDYKDDDDK EPKSSDKTHTCPPCPAPELLGGPSVFLFPPKPKDTLMISRTPEVTCVVVDVSHEDPEVKFNWYVDGVEVHNAKTKPREEQYNSTYRVVSVLTVLHQDWLNGKEYKCKVSNKALPAPIEKTISKAKGQPREPQVCTLPPSRDELTKNQVSLWCLVKGFYPSDIAVEWESNGQPENNYKTTPPVLDSDGSFFLYSKLTVDKSRWQQGNVFSCSVMHEALHNRYTQKSLSLSP light: DIVMTQSPLSLPVTPGEPASISCRSSQSLVHSNRNTYLHWYQQKPGQAPRLLIYKVSNRFSGVPDRFSGSGSGTDFTLKISRVEAEDVGVYYCGQGTQVPYTFGQGTKLEIKRTVAAPSVFIFPPSDEQLKSGTASVVCLLNNFYPREAKVQWKVDNALQSGNSQESVTEQDSKDSTYSLSSTLTLSKADYEKHKVYACEVTHQGLSSPVTKSFNRGEC | 0.6
3 | CE115HA000 S30D one-arm antibody (antibody, human IgG1, kappa, L234A L235A, N297A, name in Kabat numbering, one-arm antibody) heavy: QVQLVESGGGVVQPGRSLRLSCAASGFTFDNAWMHWVRQAPGKGLEWVAQIKAKSNNYATYYAESVKGRFTISRDDSKNSLYLQMNSLKTEDTAVYYCRYVHYGAYYGVDAWGQGTTVTVSSASTKGPSVFPLAPSSKSTSGGTAALGCLVKDYFPEPVTVSWNSGALTSGVHTFPAVLQSSGLYSLSSVVTVPSSSLGTQTYICNVNHKPSNTKVDKKVEPKSCDKTHTCPPCPAPEAAGGPSVFLFPPKPKDTLMISRTPEVTCVVVDVSHEDPEVKFNWYVDGVEVHNAKTKPREEQYASTYRVVSVLTVLHQDWLNGKEYKCKVSNKALPAPIEKTISKAKGQPREPQVYTLPPSRCELTKNQVSLSCAVKGFYPSDIAVEWESNGQPENNYKTTPPVLDSDGSFFLVSKLTVDKSRWQQGNVFSCSVMHEALHNHYTQKSLSLSPDYKDDDDK EPKSSDKTHTCPPCPAPELLGGPSVFLFPPKPKDTLMISRTPEVTCVVVDVSHEDPEVKFNWYVDGVEVHNAKTKPREEQYNSTYRVVSVLTVLHQDWLNGKEYKCKVSNKALPAPIEKTISKAKGQPREPQVCTLPPSRDELTKNQVSLWCLVKGFYPSDIAVEWESNGQPENNYKTTPPVLDSDGSFFLYSKLTVDKSRWQQGNVFSCSVMHEALHNRYTQKSLSLSP light: DIVMTQSPLSLPVTPGEPASISCRSSQSLVHSNRNTYLHWYQQKPGQAPRLLIYKVSNRFSGVPDRFSGSGSGTDFTLKISRVEAEDVGVYYCGQGTQVPYTFGQGTKLEIKRTVAAPSVFIFPPSDEQLKSGTASVVCLLNNFYPREAKVQWKVDNALQSGNSQESVTEQDSKDSTYSLSSTLTLSKADYEKHKVYACEVTHQGLSSPVTKSFNRGEC | 0.86
4 | CE115HA000 S30G one-arm antibody (antibody, human IgG1, kappa, L234A L235A, N297A, name in Kabat numbering, one-arm antibody) heavy: QVQLVESGGGVVQPGRSLRLSCAASGFTFGNAWMHWVRQAPGKGLEWVAQIKAKSNNYATYYAESVKGRFTISRDDSKNSLYLQMNSLKTEDTAVYYCRYVHYGAYYGVDAWGQGTTVTVSSASTKGPSVFPLAPSSKSTSGGTAALGCLVKDYFPEPVTVSWNSGALTSGVHTFPAVLQSSGLYSLSSVVTVPSSSLGTQTYICNVNHKPSNTKVDKKVEPKSCDKTHTCPPCPAPEAAGGPSVFLFPPKPKDTLMISRTPEVTCVVVDVSHEDPEVKFNWYVDGVEVHNAKTKPREEQYASTYRVVSVLTVLHQDWLNGKEYKCKVSNKALPAPIEKTISKAKGQPREPQVYTLPPSRCELTKNQVSLSCAVKGFYPSDIAVEWESNGQPENNYKTTPPVLDSDGSFFLVSKLTVDKSRWQQGNVFSCSVMHEALHNHYTQKSLSLSPDYKDDDDK EPKSSDKTHTCPPCPAPELLGGPSVFLFPPKPKDTLMISRTPEVTCVVVDVSHEDPEVKFNWYVDGVEVHNAKTKPREEQYNSTYRVVSVLTVLHQDWLNGKEYKCKVSNKALPAPIEKTISKAKGQPREPQVCTLPPSRDELTKNQVSLWCLVKGFYPSDIAVEWESNGQPENNYKTTPPVLDSDGSFFLYSKLTVDKSRWQQGNVFSCSVMHEALHNRYTQKSLSLSP light: DIVMTQSPLSLPVTPGEPASISCRSSQSLVHSNRNTYLHWYQQKPGQAPRLLIYKVSNRFSGVPDRFSGSGSGTDFTLKISRVEAEDVGVYYCGQGTQVPYTFGQGTKLEIKRTVAAPSVFIFPPSDEQLKSGTASVVCLLNNFYPREAKVQWKVDNALQSGNSQESVTEQDSKDSTYSLSSTLTLSKADYEKHKVYACEVTHQGLSSPVTKSFNRGEC | 1.01
5 | CE115HA000 S52cF one-arm antibody (antibody, human IgG1, kappa, L234A L235A, N297A, name in Kabat numbering, one-arm antibody) heavy: QVQLVESGGGVVQPGRSLRLSCAASGFTFSNAWMHWVRQAPGKGLEWVAQIKAKFNNYATYYAESVKGRFTISRDDSKNSLYLQMNSLKTEDTAVYYCRYVHYGAYYGVDAWGQGTTVTVSSASTKGPSVFPLAPSSKSTSGGTAALGCLVKDYFPEPVTVSWNSGALTSGVHTFPAVLQSSGLYSLSSVVTVPSSSLGTQTYICNVNHKPSNTKVDKKVEPKSCDKTHTCPPCPAPEAAGGPSVFLFPPKPKDTLMISRTPEVTCVVVDVSHEDPEVKFNWYVDGVEVHNAKTKPREEQYASTYRVVSVLTVLHQDWLNGKEYKCKVSNKALPAPIEKTISKAKGQPREPQVYTLPPSRCELTKNQVSLSCAVKGFYPSDIAVEWESNGQPENNYKTTPPVLDSDGSFFLVSKLTVDKSRWQQGNVFSCSVMHEALHNHYTQKSLSLSPDYKDDDDK EPKSSDKTHTCPPCPAPELLGGPSVFLFPPKPKDTLMISRTPEVTCVVVDVSHEDPEVKFNWYVDGVEVHNAKTKPREEQYNSTYRVVSVLTVLHQDWLNGKEYKCKVSNKALPAPIEKTISKAKGQPREPQVCTLPPSRDELTKNQVSLWCLVKGFYPSDIAVEWESNGQPENNYKTTPPVLDSDGSFFLYSKLTVDKSRWQQGNVFSCSVMHEALHNRYTQKSLSLSP light: DIVMTQSPLSLPVTPGEPASISCRSSQSLVHSNRNTYLHWYQQKPGQAPRLLIYKVSNRFSGVPDRFSGSGSGTDFTLKISRVEAEDVGVYYCGQGTQVPYTFGQGTKLEIKRTVAAPSVFIFPPSDEQLKSGTASVVCLLNNFYPREAKVQWKVDNALQSGNSQESVTEQDSKDSTYSLSSTLTLSKADYEKHKVYACEVTHQGLSSPVTKSFNRGEC | 1.13
6 | CE115HA000 S52cA one-arm antibody (antibody, human IgG1, kappa, L234A L235A, N297A, name in Kabat numbering, one-arm antibody) heavy: QVQLVESGGGVVQPGRSLRLSCAASGFTFSNAWMHWVRQAPGKGLEWVAQIKAKANNYATYYAESVKGRFTISRDDSKNSLYLQMNSLKTEDTAVYYCRYVHYGAYYGVDAWGQGTTVTVSSASTKGPSVFPLAPSSKSTSGGTAALGCLVKDYFPEPVTVSWNSGALTSGVHTFPAVLQSSGLYSLSSVVTVPSSSLGTQTYICNVNHKPSNTKVDKKVEPKSCDKTHTCPPCPAPEAAGGPSVFLFPPKPKDTLMISRTPEVTCVVVDVSHEDPEVKFNWYVDGVEVHNAKTKPREEQYASTYRVVSVLTVLHQDWLNGKEYKCKVSNKALPAPIEKTISKAKGQPREPQVYTLPPSRCELTKNQVSLSCAVKGFYPSDIAVEWESNGQPENNYKTTPPVLDSDGSFFLVSKLTVDKSRWQQGNVFSCSVMHEALHNHYTQKSLSLSPDYKDDDDK EPKSSDKTHTCPPCPAPELLGGPSVFLFPPKPKDTLMISRTPEVTCVVVDVSHEDPEVKFNWYVDGVEVHNAKTKPREEQYNSTYRVVSVLTVLHQDWLNGKEYKCKVSNKALPAPIEKTISKAKGQPREPQVCTLPPSRDELTKNQVSLWCLVKGFYPSDIAVEWESNGQPENNYKTTPPVLDSDGSFFLYSKLTVDKSRWQQGNVFSCSVMHEALHNRYTQKSLSLSP light: DIVMTQSPLSLPVTPGEPASISCRSSQSLVHSNRNTYLHWYQQKPGQAPRLLIYKVSNRFSGVPDRFSGSGSGTDFTLKISRVEAEDVGVYYCGQGTQVPYTFGQGTKLEIKRTVAAPSVFIFPPSDEQLKSGTASVVCLLNNFYPREAKVQWKVDNALQSGNSQESVTEQDSKDSTYSLSSTLTLSKADYEKHKVYACEVTHQGLSSPVTKSFNRGEC | 0.96
